Reference: publication PMC8964413 (Nature chemical biology, 2022)

Columns and labels:
[1] = target: unanchored wild-type K63-linked di-Ub (UniProt P0CG48); assay: cell-based or functional assay
[2] = target: donor ubiquitin (Ub^D), from His-TEV-Ub^WT (UniProt P0CG48 1-76, in the crystal: G76 isopeptide-linked to K92 of UBE2K); assay: crystal structure

Row | k cat/K m of tri-Ub formation, K63-Ub2 as acceptor [1] | binding result [2] | Binder
1 | 418 M⁻¹ s⁻¹ | – | UBE2K^WT (enzyme) MANIAVQRIKREFKEVLKSEETSKNQIKVDLVDENFTELRGEIAGPPDTPYEGGRYQLEIKIPETYPFNPPKVRFITKIWHPNISSVTGAICLDILKDQWAAAMTLRTVLLSLQALLAAAEPDDPQDAVVANQYKQNPEMFKQTARLWAHVYAGAPVSSPEYTKKIENLCAMGFDRNAVIVALSSKSWDVETATELLLSN
2 | – | binds | UBE2K^C92K,K97R,D124C,C170S (enzyme) MANIAVQRIKREFKEVLKSEETSKNQIKVDLVDENFTELRGEIAGPPDTPYEGGRYQLEIKIPETYPFNPPKVRFITKIWHPNISSVTGAIKLDILRDQWAAAMTLRTVLLSLQALLAAAEPDCPQDAVVANQYKQNPEMFKQTARLWAHVYAGAPVSSPEYTKKIENLSAMGFDRNAVIVALSSKSWDVETATELLLSN
